According to US20090311265A1 (CRUCELL HOLLAND B V, published 2009):

Key:
[1] = molecular target: soluble recombinant HA (sHA) of H5N1TV (influenza A virus A/Vietnam/1194/2004 …, UniProt Q6J8F6 17-528); assay: immunoblot, reducing SDS-PAGE
[2] = molecular target: recombinant HA, subtype H3 (A/Wyoming/3/2003(H3N2)) (influenza A virus A/Wyoming/3/2003 …); assay: ELISA, coated HA, IgG 5 µg/ml
[3] = molecular target: T1, recombinant HA, subtype H5 (A/Vietnam/1203/2004 (H5N1)) (influenza A virus A/Vietnam/1203/2004 …, UniProt Q80A26 6-554); assay: ELISA, coated HA, IgG 5 µg/ml
[4] = molecular target: full-length HA from isolate A/Vietnam/1194/2004 (H5N1TV) on PER.C6 cells (influenza A virus A/Vietnam/1194/2004 …, UniProt Q80A26 6-554); assay: flow cytometry, transfected PER.C6 cells
[5] = molecular target: recombinant HA, subtype H1 (A/New Caledonia/20/99 (H1N1)) (influenza A virus A/New Caledonia/20/99 …, UniProt Q289M7 18-565); assay: ELISA, coated HA, IgG 5 µg/ml
[6] = molecular target: T1, recombinant HA, subtype H5 …; assay: competition ELISA on coated HA, IgG 10 µg/ml, competitor: phage antibodies

| Binder | binding result [1] | OD 492 nm [2] [OD 492 nm] | OD 492 nm [3] [OD 492 nm] | flow cytometry signal at 0.1 µg/ml [4] | flow cytometry signal at 1 µg/ml [4] | flow cytometry signal at 10 µg/ml [4] | OD 492 nm [5] [OD 492 nm] | residual binding of phage antibody in the presence of the IgG [6] [%] |
| --- | --- | --- | --- | --- | --- | --- | --- | --- |
| CR6307 (antibody, V domains shown) VH: QVQLVQSGGGLVKPGGSLRLSCAASGFTFSSYSMNWVRQAPGKGLEWVSSISSSSSYIYYVDSVKGRFTISRDNAKNSLYLQMNSLRAEDTAVYYCARGGGSYGAYEGFDYWGQGTLVTVSS VL: EIVLTQSPGTLSLSPGERATLSCRASQRVSSYLAWYQQKPGQAPRLLIYGASTRAAGIPDRFSGSGSGTDFTLTISRLEPEDSAVYYCQQYGRTPLTFGGGTKVEIKR | binds | 0.11 | 0.99 | 82.4 | 267 | 485 |  |  |
| CR6323 (antibody, V domains shown) VH: EVQLVESGAEVKKPGSSVKVSCKASGGTFSSYGISWVRQAPGQGLEWMGDIIGMFGSTNYAQNFQGRLTITADESTSTAYMELSSLRSEDTAVYYCARSSGYYPAYLPHWGQGTLVTVSS VL: not shown | binds | 0.07 | 1.89 | 33.4 | 117 | 445 | 2.32 |  |
| CR6343 (antibody, V domains shown) VH: QVQLVQSGAEVKKPGSSVKVSCKASGVTFSYYAMSWVRQAPGQGLEWMGGISPMFGTTTYAQKFQGRVTITADDSTSTAYMEVRSLRSEDTAVYYCARSSNYYDSVYDYWGQGTLVTVSS VL: QSVVTQPPSESVAPGQTARITCGGHNIGSNSVHWYQQKPGQAPVLVVYDNSDRPSGIPERFSGSNSGNTATLTISRVEAGDEADYYCQVWGSSSDHYVFGTGTKVTVLG |  | 0.07 | 0.76 |  |  |  | 1.28 | > 25 |
